The values that follow come from the DeepSol protein solubility set.

The nature of this data set: soluble on expression in E. coli; label from the status in PepcDB or PDB records.
For the sequence “MNNSRLFRLSRIVIALTAASGMMVNTANAKEEAKAATQYTQQVNQNYAKSLPFSDRQDFDDAQRGFIAPLLDEGILRDANGKVYYRADDYKFDINAAAPETVNPSLWRQSQINGISGLFKVTDKMYQVRGQDISNITFVEGEKGIIVIDPLVTPPAAKAALDLYFQHRPQKPIVAVIYTHSHTDHYGGVKGIISEADVKSGKVQVIAPAGFMDEAISENVLAGNIMSRRALYSYGLLLPHNAQGNVGNGLGVTLATGDPSIIAPTKTIVRTGEKMIIDGLEFDFLMTPGSEAPAEMHFYIPALKALCTAENATHTLHNFYTLRGAKTRDTSKWTEYLNETLDMWGNDAEVLFMPHTWPVWGNKHINDYIGKYRDTIKYIHDQTLHLANQGYTMNEIGDMIKLPPALANNWASRGYYGSVSHNARAVYNFYLGYYDGNPANLHPYGQVEMGKRYVQALGGSARVINLAQEANKQGDYRWSAELLKQVIAANPGDQVAKNLQANNFEQLGYQAESATWRGFYLTGAKELREGVHKFSHGTTGSPDTIRGMSVEMLFDFMAVRLDSAKAAGKNISLNFNMSNGDNLNLTLNDSVLNYRKTLQPQADASFYISREDLHAVLTGQAKMADLVKAKKAKIIGNGAKLEEIIACLDNFDLWVNIVTPN”, the “soluble on expression in E. coli” value is recorded as “soluble”.

In the case of “MESISRSPRIFLLSLGRWNSGISVCWYSPRHPRAIISDPAPRIAREHATVLFGDSHASEENNAARRRNFHNKKTSRGGNDDKQSRGNNAEKRKRRDPMTSQGPDSDEDELQEMTNKDRLKRAKRKGIDPMDPGAHGGAPVEKWSDGLRVDHVTGADVTAGGPLFQQRPYPAPGAILRKHKPQDEEDDQQFNFLKSF”, the “soluble on expression in E. coli” value was “not soluble”. In the case of “MGSDKIHHHHHHMKVVPAQRCVYSFSANMAPVEEVYPGEQVVFETLDALGGSYDKIDFSKVNPATGPVFVNGVKPGDTLKVRIKRIELPRRGMIVTGKGFGVLGDEVEGFHTKELEIEKWAVLFDGVRIPIHPMVGVIGVAPQEGEYPTGTAHRHGGNMDTKEITENVTVHLPVFQEGALLALGDVHATMGDGEVCVSACEVPAKVVVEIDVSKEEIKWPVVETNDAYYIIVSLPDIEEALKEVTRETVWFIQRRKTIPFTDAYMLASLSVDVGISQLVNPAKTAKARIPKYIFTGV” it was “soluble”; in that of “GPGSMPYIRMAYEKAISDVPADTLDKVKAVLSALEEVLSVRTFLVGERLTIADVAVAFSIHWVYRCNRKHGQTLYKEYRAVYRHYNTVMRHPKIHAMMRKEGAAIGPLRS”, “not soluble”. In the case of “MNRVYVGTVSAVTDIGVFVNLNKRLRGLIHRRNLGNNRFSEDEEILVQVSGIGLSGEIDLKPVKMDGYKVVEISKEVGRVEIAELENLEHHHHHH” it was “not soluble”; in that of “MNEILKTEDEVVRWSVKKINDDTTLIEFELKRDLVPEDLKKINPPDAVKNKFANTFIVLSGRGPIWLYGFLIHFYHPTKGIGVFDPRLGGAVVVSSHSPNKKVGDVIKWEG”, “not soluble”. Consider “MILNPQKLSVDFGNGITATEPIIPRRYTLTHSDITAKLFLNIGLTYAYNKMTTMRDEVLGEWVKKSQDYSYQVFLHVDGRLGPKTTAIRNKIFRRELPLALEAIRYGDKRFFNAHPYLDNAPITVFFISTNPNFNKIENWGTFSDYNIESYYRNLEHHHHHH”, for which the “soluble on expression in E. coli” value was “soluble”. The value for “KGATFKEAEEHYHINALYLLAHSALESNWGRSKIAKDKNNFFGITAYDTTPYLSAKTFDDVDKGILGATKWIKENYIDRGRTFLGNKASGMNVEYASDPYWGEKIASVMMKINEKLGGKD” was “not soluble”. The value for “MNNRIIYVVSDSVGETAELVVKAALSQFNGSADDTHVRRIPYVEDIGTINEVISLAKADGGIICFTLVVPEIREYLIAEAEKANVLYYDIIGPLIDKMETAYGLTAKYEPGRVRQLDEDYFKKVEAIEFAVKYDDGRDPRGILKADIVLIGVSRTSKTPLSQYLAHKRLKVANVPIVPEVDPPEELFNVDPKKCIGLKISPDKLNHIRKERLKSLGLNDKAIYANINRIKEELEYFEKIVDRIGCQVVDVSNKAVEETANIIHHLKTKNIAAALEHHHHHH” was “not soluble”; that for “MGSSHHHHHHSSGLVPRGSHMEFKVIAEYFDKLEKISSRLQLTALLADLLSKSDKTIIDKVVYIIQGKLWPDFLGYPELGIGEKFLIKAISIATNTDENSVENLYKTIGDLGEVARRLKSKQQSTGILGFLGTTSKESLTVDEVYSTLSKVALTTGEGSRDLKIRLLAGLLKKADPLEAKFLVRFVEGRLRVGIGDATVLDAMAIAFGGGQSASEIIERAYNLRADLGNIAKIIVEKGIEALKTLKPQVGIPIRPMLAERLSNPEEILKKMGGNAIVDYKYDGERAQIHKKEDKIFIFSRRLENITSQYPDVVDYVSKYIEGKEFIIEGEIVAIDPESGEMRPFQELMHRKRKSDIYEAIKEYPVNVFLFDLMYYEDVDYTTKPLEARRKLLESIVKPNDYVKIAHHIQANNVEDLKSFFYRAISEGGEGVMVKAIGKDAIYQAGARGWLWIKLKRDYQSEMADTVDLVVVGGFYGKGKRGGKISSLLMAAYNPKTDSFESVCKVASGFSDEQLDELQKKLMEIKRDVKHPRVNSKMEPDIWVEPVYVAEIIGSEITISPLHTCCQDVVEKDAGLSIRFPRFIRWRDDKSPEDATTTDEILEMYNKQPKKKIESPAVDESV” was “soluble”.

Consider “MMSNQTVYQFIAENQNELLQLWTDTLKELSEQESYQLTDQVYENISKEYIDILLLSVKDENAAESQISELALRAVQIGLSMKFLATALAEFWKRLYTKMNDKRLPDQESTELIWQIDRFFSPINTEIFNQYSISWE”, for which the “soluble on expression in E. coli” value is given as “soluble”. The value for “MDFVHCNKCFNRKPPDGFFISSCFHIFCTKCAKADLAVCLICKKNVRLVRLDGNISSGIKIYFADPIKMVADSLAKIQKKIDFQQSTRDHLVKYLTKEKEKKRQMEVYFRTKGQEFDSQRKKLAEATAWIQMAEKKLQASEEERVKAEREIEECQAKLKSMTNLMSADTLGMNSQTPFPFSLAESQETAPSLVESSANSTFNMVSPLVSSPASSPNSINYNSFFENGSRTRPESLNEEAMFNTMSSGQSANANTSESSAFSVAFNNIFTPSRNNMGDSSMINKTTANQTIMDKTSMSLENWRQNRANSFGVHDISKRDSSLPTGGGSAIRVHHFKQNSRITPIAQNRRSAAGFDRQQIQEMRRISSQPGYLAQRKPINGRSFIGPAD” was “not soluble”; that for “SAARLLRGSLRVLGGHRAPRQLPAARCSHSGGEERLETPSAKKLTDIGIRRIFSPEHDIFRKSVRKFFQEEVIPHHSEWEKAGEVSREVWEKAGKQGLLGVNIAEHLGGIGGDLYSAAIVWEEQAYSNCSGPGFSIHSGIVMSYITNHGSEEQIKHFIPQMTAGKCIGAIAMTEPGAGSDLQGIKTNAKKDGSDWILNGSKVFISNGSLSDVVIVVAVTNHEAPSPAHGISLFLVENGMKGFIKGRKLHKMGLKAQDTAELFFEDIRLPASALLGEENKGFYYIMKELPQERLLIADVAISASEFMFEETRNYVKQRKAFGKTVAHLQTVQHKLAELKTHICVTRAFVDNCLQLHEAKRLDSATACMAKYWASELQNSVAYDCVQLHGGWGYMWEYPIAKAYVDARVQPIYGGTNEIMKELIAREIVFDK” was “soluble”.

With “MAEIPLFPLSNALFPAGVLRLRVFEIRYLDMVRRCIADGSEFGVVVLEQGTEVRRPDGREVLARAGTMARIDHWEAPMPALLELACTGTGRFRLHACTQGKYGLWTGQAEPVPDDAPLEVPPELARSASALGRLIARLQREGVPPHIMPMAAPFRLDDCGWVADRWAEMLSLPPADKARLLLLPPLDRLREIDAVLAADGHALEHHHHHH”, the “soluble on expression in E. coli” value is “soluble”. As for “MGSDKIHHHHHHVRFATKFDLLSHIRLNAALTSARFDAEQGLWLLRLENGEQLKASFFICSAGPLSEPRYPDIPGMDTYEGRLFHSARWDHDYPLNGKRVAVIGTAASAVQIIPHIAPLAARLYVCQRSPNWIIPRLNHVYAPWEKALFRLKPIAKTNRFLLYWLHEMNRLSFNPGGFMARIGRELAEWHLRRQVIDPRLRGALRPGYPLGCKRVLLSNDYYPTLMRPNVELIDTPIDRIDPGGIVTRDGQKREVDVIICATGFNVKRMLSVEIRGLQGYRLNEAWAREPKAYQGVTVASFPNLFILLGPNTGQGHTSAILFIEAQVNYALKCIQEIARQQKRFLSVKPEAMNRYNEELQKTLSTSVWAAGCRSWYKTESGKIIGIYPGFSFQYAKQLREPRFEDYVMC”, the “soluble on expression in E. coli” value is listed as “not soluble”. The value for “MPKSNPVTPNKQPSEDWNELLTEFRGKGGRALQKTFIRKLWAVQEDIIANANPSTLRCIFFAPALLICPEGIKLSAEILPKIGVGNGLILLEKLILKFNLTDTECQRYGEVFVTAWRNAYQEANFDLTEELETDVISVMCQHALYAHRPTCTKFQNVIAAFAHAKKLDKSVDEMVTRLLNGCLYRALDAPNYIVQSSAAEVFFNFYPLIGEDTEDMDRIMENQHRYMMDLLRSDVISIRSEATKHVLKAISEFWLLIPKNIVKELMGYIIDTVAKDTVVSVRVAVFEGLNEMAFVPACLTAFEYGLKCAVDPALQDKSERVRLAAYQIISRLKNHKFISVFDIITRDDAIAKLDLENVETCRRQLIPIMHICLPISKSLDEAYYRPRVNYMLGKSRLALLSYFRLLGPMKIIDASQASKLIEMFITWAYRYLRKKDGPPLPETAEGYKKARAYLECALILYMSCKGMLMSDGDGTSKAKCDQIFGKVVKEIFEKYANTPILGTATAISSVIPKDYLKSIANDVLARLEDDDVPPEAVEPFLESAIHFNPDSVFDSFDSGLNVLVNLYGTKQSKKKRRELEDPEDVLIMTLNRLKYLLQSHSTSNLIAMKDEYRTKVLDLLKKIDLIREGIEIRLAKEEGQEHTLSDDVLLSILEFRFILPFFAATNGSEDAADRNQTIESMKNLLLWFEKNISSQMATFGEHNQDFLIQLTSTFLNCVNVSLSAYDFKTRPVEFEDEEDNENRDPREENDAAKDQATVAEVISRIVKSFCNSSTPFEIFRPALRVGTTLCDESYSEVHHEMALLLRFIPKWMNKQCDLMEDDEENIFKNHREIVESLRQFHKRVSETDYWDEDSAKRMMHHFMLFSIVSASSKNDDEAYDDPRDEDYKPPHFISLALIKFILKEKSLTEDIIEEISTNYIPEDSKYFTAEEGELKTDEKLSKLAALSQLLRILERYSKFHGKLIKEAIDKCTTRVLDCFANASDLNTVAHHILNSLSSLLDVQLPDENRL” was “not soluble”; that for “STFQFNFTIEDHLENELTPIRDGALTLDSSKELSVSESQKGEERDRKCSAEQFDLPQDHLWEHKSMENAAPSQDTDSPLSAASSSRNLEPHGKQPSLRAAKEHAMPKDLKKMLENKVIETLPGFQHVKLSVVKTILLKENFPGENIVSKSFSSHSDLITGVYEGGLKIWECTFDLLAYFTKAKVKFAGKKVLDLGCGSGLLGITAFKGGSKEIHFQDYNSMVIDEVTLPNVVANSTLEDEENDVNEPDVKRCRKPKVTQLYKCRFFSGEWSEFCKLVLSSEKLFVKYDLILTSETIYNPDYYSNLHQTFLRLLSKNGRVLLASKAHYFGVGGGVHLFQKFVEERDVFKTRILKIIDEGLKRFIIEITFKFPG” was “not soluble”. In the case of “MAHHHHHHMLTTFNIIWKREQAENVNNEKQCKTVSESLGGNAESSESPSSSISEFDQLVNDVEDLLEEQQINETEKLYKISKCPNEKFNKKNKLSITDLSAQLWCEQQLELILTTGKKRETEAMRLGIERHEVLEKADHLIIDVEVNTREESLGYRLLNTIILLEQLYEYKKAREVWVFGVIRGYVLRGIIDELRIEYDHVSRREYLIISDTKTRKEKREPSFAQKKSSAIQVQTYCLLLQHLKSGKADFKKLFEIYECDPTFEFTAIDLIKYKNLENLCKVVNCLFVRLPKIKEEMEIVYEHQGVEFSRNHIPYFYHSTLFTINILLDYWDGKRSSDVVENSDKWKCKFCDFVRNCVRCPLDG” it was “not soluble”.
